Source: patent publication US20050064507A1, “Determining kinase specificity” (priority 2003, published 2005)

Molecular target: T1, PKC-alpha (Homo sapiens, UniProt P17252)
T1 construct: purchased Calbiochem
Assay: In vitro kinase assay: peptide phosphorylation by PKC-alpha
Assay type: biochemical
Settings: peptide concentration 1 uM
Description: Catalytically active preparations of the kinases of interest were either purchased or prepared. Purchased and tested active kinase preparations including the following: PKC-alpha, PKC-delta, PKC-epsilon, PKC-zeta, PKC-mu, PKA, PKG from Calbiochem, ROK alpha/ROCK-II, active from Upstate Biotechnology, and AKT1 from Panvera.
(§1) The conditions of the kinase assay and the amount of active kinase used varied with the kinase and with the accuracy needed. For a typical experiment, 5-20 ng of kinase was used per well and each peptide pool was assayed in duplicate wells. Note that the absolute amount of kinase used was not usually a critical parameter, because the desired information related to specificity of the kinase not its absolute activity, and robustness of the assay depends on comparisons of the same amount of kinase on different peptides. The combination of kinase concentration and assay duration was modified to assure that the stoichiometry of peptide phosphorylation never exceeded 5%. The choice of kinase buffer depended on the kinase being analyzed. For studies of PKC, 100 mM HEPES, 0.05% Triton-X100, 1 mM CaCl2, 20 mM MgCl2, 0.2 mg/ml phosphatidyl serine (Avanti Polar Lipids), PMA 100 ng/ml was typically used. The lipid stock was prepared by transferring 3 mg phosphatidyl serine into iced mixture of 450 μl water plus 50 μl of 10% Triton-X100, sonicating 10 times on ice for 1 sec each.
(§2) The kinase reaction mixture was assembled by sequential addition to a tube held on ice of: 5 μl peptide (100 μM for final concentration of 10 μM), 15 μl of kinase (typically 5 ng/well, in appropriate kinase buffer), 30 μl of ATP (1 uCi/well of ^32P-gamma ATP in a stock of 167 μM cold ATP in the kinase buffer; for final concentration for 100 μM ATP). The mixture was rapidly warmed to desired reaction temperature (30° C. for PKC) and incubated for the desired duration (usually 10 minutes). The kinase assay was terminated by transfer to 4° C. water batch, and rapid addition of an equal volume (50 μl) of stop solution [0.1M ATP+0.1M EDTA in water, pH 8].
(§3) The peptides were then captured from the reaction mixture by transfer to a Reacti-Bind Streptavidin High Binding Capacity Coated Plates (HBC) (Pierce Biotechnology) as follows. The HBC plates were pre-rinsed three times with PBS/Tween PBS/Tween20 0.05% (PBS/Tween). Part of all of the reaction mixture was then transferred wells of a HBC plate pre-filled with 90 μl of phosphate-buffered saline (PBS); typically each aliquots of each phosphorylation reaction were transferred to duplicate HBC plates to assure accuracy by additional replication
For kinase assays done at the standard peptide concentration of 10 μM, the peptide concentration in the reaction mixture becomes 5 μM after addition of the stop solution; consequently 10 μl of the reaction (50 pMoles of peptide) was transferred to the HBC plate. More generally, the amount of reaction mixture transferred was estimated to be about 50 pMoles of peptide. […] The HBC plates were incubated for 0.5 to 1.5 hr at room temperature for complete binding of biotinylated peptides to plate-bound streptavidin. The HBC plates were then washed extensively with PBS/Tween. Five washes were done routinely and additional wash steps were added if the wash solution removed from the plate had measurable radioactivity as detected using a Geiger counter. This step is essential to obtaining a good the signal to noise ratio because the fraction of radioactivity incorporated in the peptides was a tiny fraction of the total in the reaction mixture. The wells were air-dried. A volume of 40-50 μl of microScint-20 (Packard Instruments) was added to each well. The plates were covered with stick-on film sheet. Radioactive emissions were measured in a TopCount NXT Microplate Scintillation and Luminescence Counter (Packard Instruments). Typically samples were counted for 5 minutes (or more) to improve the signal to noise ratio when counts were low. […]

Substance	phosphorylation by PKC alpha
114 (KKKKRASFKRKSSKKG) [compound 114]	100
115 (NRKKKRTSFKRKA) [compound 115]	55
116 (EEGTFRSSIRRLSTRRR) [compound 116]	70
117 (NRKKKRTSFKRKA) [compound 117]	40
118 (RPQNTLKASKKKKRASFKRK) [compound 118]	46
119 (KKRFSFKKSFKLSGFSFKKN) [compound 119]	94
120 (AKRRRLSSLRASTSK) [compound 120]	55
122 (RAITSTLASSFKRRR) [compound 122]	43
123 (KKRFSFKKSFKLSGFSFKKN) [compound 123]	58
124 (PRLIRRGSKKRPAR) [compound 124]	48
125 (PLKEKKRERKTSSKSSVRKR) [compound 125]	34
126 (KAIKAIEGGQKFARKSTRRS) [compound 126]	36
127 (SQVQKQRSAGSFKRNSIKKI) [compound 127]	40
128 (QQVDRERPHVRRRRGTFKRS) [compound 128]	25
129 (VQRHRSMRKTFARYLSFRRD) [compound 129]	58
130 (EYLERRASRRRAV) [compound 130]	38
131 (WKGKRRSKARKKRK) [compound 131]	49
132 (GFLNEPLSSKSQRRKSLKLK) [compound 132]	24
133 (LEKRGMLGKRPRRKSSRRKK) [compound 133]	17
134 (RSRSRSRSKSKDKRKSRKRS) [compound 134]	54
135 (KKKFRTPSFLKKSKK) [compound 135]	56
136 (RARRDSLKKIEIW) [compound 136]	26
137 (PSKSPSKKKKKFRTPSFLKK) [compound 137]	34
138 (EYLERRASRRRAV) [compound 138]	17
139 (RPTPGDGEKRSRIKKSKKRK) [compound 139]	39
140 (TELEGGFSRQRKRKLSFRRR) [compound 140]	12
141 (VTDSQKRREILSRRPSYRKI) [compound 141]	24
142 (ERHVAQKKSRLRRRASQLKI) [compound 142]	16
143 (VRYTPYTISPYNRKGSFRKQ) [compound 143]	38
144 (LSSMFGTLPRKSRKGSVRKQ) [compound 144]	31

Same assay, conditions: peptide concentration 10 uM

Substance	phosphorylation by PKC alpha
114 (KKKKRASFKRKSSKKG) [compound 114]	100
115 (NRKKKRTSFKRKA) [compound 115]	56
116 (EEGTFRSSIRRLSTRRR) [compound 116]	57
117 (NRKKKRTSFKRKA) [compound 117]	39
118 (RPQNTLKASKKKKRASFKRK) [compound 118]	60
119 (KKRFSFKKSFKLSGFSFKKN) [compound 119]	98
120 (AKRRRLSSLRASTSK) [compound 120]	58
122 (RAITSTLASSFKRRR) [compound 122]	44
123 (KKRFSFKKSFKLSGFSFKKN) [compound 123]	73
124 (PRLIRRGSKKRPAR) [compound 124]	24
125 (PLKEKKRERKTSSKSSVRKR) [compound 125]	31
126 (KAIKAIEGGQKFARKSTRRS) [compound 126]	34
127 (SQVQKQRSAGSFKRNSIKKI) [compound 127]	39
128 (QQVDRERPHVRRRRGTFKRS) [compound 128]	33
129 (VQRHRSMRKTFARYLSFRRD) [compound 129]	37
130 (EYLERRASRRRAV) [compound 130]	38
131 (WKGKRRSKARKKRK) [compound 131]	22
132 (GFLNEPLSSKSQRRKSLKLK) [compound 132]	30
133 (LEKRGMLGKRPRRKSSRRKK) [compound 133]	16
134 (RSRSRSRSKSKDKRKSRKRS) [compound 134]	39
135 (KKKFRTPSFLKKSKK) [compound 135]	19
136 (RARRDSLKKIEIW) [compound 136]	28
137 (PSKSPSKKKKKFRTPSFLKK) [compound 137]	38
138 (EYLERRASRRRAV) [compound 138]	20
139 (RPTPGDGEKRSRIKKSKKRK) [compound 139]	44
140 (TELEGGFSRQRKRKLSFRRR) [compound 140]	15
141 (VTDSQKRREILSRRPSYRKI) [compound 141]	25
142 (ERHVAQKKSRLRRRASQLKI) [compound 142]	21
143 (VRYTPYTISPYNRKGSFRKQ) [compound 143]	19
144 (LSSMFGTLPRKSRKGSVRKQ) [compound 144]	20

Tested on: PKC
Assay: In vitro phosphorylation by PKC (average of isoforms alpha, epsilon, delta, theta)
Assay type: biochemical
Settings: average over PKC-theta, -epsilon and -alpha at 10 and 1 uM peptide, relative to best substrate
Description: as §1, §2, §3
For kinase assays done at the standard peptide concentration of 10 μM, the peptide concentration in the reaction mixture becomes 5 μM after addition of the stop solution; consequently 10 μl of the reaction (50 pMoles of peptide) was transferred to the HBC plate. More generally, the amount of reaction mixture transferred was estimated to be about 50 pMoles of peptide. […] The HBC plates were incubated for 0.5 to 1.5 hr at room temperature for complete binding of biotinylated peptides to plate-bound streptavidin. The HBC plates were then washed extensively with PBS/Tween. Five washes were done routinely and additional wash steps were added if the wash solution removed from the plate had measurable radioactivity as detected using a Geiger counter. This step is essential to obtaining a good the signal to noise ratio because the fraction of radioactivity incorporated in the peptides was a tiny fraction of the total in the reaction mixture. The wells were air-dried. A volume of 40-50 μl of microScint-20 (Packard Instruments) was added to each well. The plates were covered with stick-on film sheet. Radioactive emissions were measured in a TopCount NXT Microplate Scintillation and Luminescence Counter (Packard Instruments). Typically samples were counted for 5 minutes (or more) to improve the signal to noise ratio when counts were low.
Many peptides that are good substrates for PKC enzymes were identified using the methods of the invention. For example, Tables 4 and 5 provide a listing of peptides identified as potentially useful kinase substrates. […]

Substance	average (phosphorylation by PKC-theta, -delta, -epsilon, -alpha)
114 (KKKKRASFKRKSSKKG) [compound 114]	95
115 (NRKKKRTSFKRKA) [compound 115]	80
116 (EEGTFRSSIRRLSTRRR) [compound 116]	71
117 (NRKKKRTSFKRKA) [compound 117]	70
118 (RPQNTLKASKKKKRASFKRK) [compound 118]	64
119 (KKRFSFKKSFKLSGFSFKKN) [compound 119]	61
120 (AKRRRLSSLRASTSK) [compound 120]	52
122 (RAITSTLASSFKRRR) [compound 122]	49
123 (KKRFSFKKSFKLSGFSFKKN) [compound 123]	49
124 (PRLIRRGSKKRPAR) [compound 124]	49
125 (PLKEKKRERKTSSKSSVRKR) [compound 125]	48
126 (KAIKAIEGGQKFARKSTRRS) [compound 126]	46
127 (SQVQKQRSAGSFKRNSIKKI) [compound 127]	43
128 (QQVDRERPHVRRRRGTFKRS) [compound 128]	42
129 (VQRHRSMRKTFARYLSFRRD) [compound 129]	40
130 (EYLERRASRRRAV) [compound 130]	39
131 (WKGKRRSKARKKRK) [compound 131]	38
132 (GFLNEPLSSKSQRRKSLKLK) [compound 132]	38
133 (LEKRGMLGKRPRRKSSRRKK) [compound 133]	37
134 (RSRSRSRSKSKDKRKSRKRS) [compound 134]	34
135 (KKKFRTPSFLKKSKK) [compound 135]	33
136 (RARRDSLKKIEIW) [compound 136]	32
137 (PSKSPSKKKKKFRTPSFLKK) [compound 137]	31
138 (EYLERRASRRRAV) [compound 138]	31
139 (RPTPGDGEKRSRIKKSKKRK) [compound 139]	30
140 (TELEGGFSRQRKRKLSFRRR) [compound 140]	30
141 (VTDSQKRREILSRRPSYRKI) [compound 141]	29
142 (ERHVAQKKSRLRRRASQLKI) [compound 142]	28
143 (VRYTPYTISPYNRKGSFRKQ) [compound 143]	28
144 (LSSMFGTLPRKSRKGSVRKQ) [compound 144]	28
